Measured values from the supplement of paper PMC11316812.
± gives the standard deviation of the averaged measurements.

Assays:
hTERT-HMEC = test: percentage of EdU-negative (G0-arrested) nuclei per well, 72 h; higher = more G0 arrest; settings: reference: sequence is the full UniProt precursor, the tested protein was the secreted form or ectodomain
MCF7 = test: as above; settings: reference: sequence is the full UniProt precursor, the tested protein was the secreted form or ectodomain
[1] = protein concentration 0.0225 µM
[2] = protein concentration 0.0238325 µM
[3] = protein concentration 0.238325 µM
[4] = protein concentration 0.017475 µM
[5] = protein concentration 0.17475 µM
[6] = protein concentration 0.03123 µM
[7] = protein concentration 0.3123 µM
[8] = protein concentration 0.01025 µM
[9] = protein concentration 0.1025 µM
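Further: secreted proteins added to cultured cells, EdU pulse at the end, nuclei found by Hoechst imaging, EdU status from nuclear versus surrounding ring intensity ratio, PBS as neutral control.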

MVDGVMILPVLIMIALPSPSMEDEKPKVNPKLYMCVCEGLSCGNEDHCEGQQCFSSLSINDGFHVYQKGCFQVYEQGKMTCKTPPSPGQAVECCQGDWCNRNITAQLPTKGKSFPGTQNFHLEVGLIILSVVFAVCLLACLLGVALRKFKRRNQERLNPRDVEYGTIEGLITTNVGDSTLADLLDHSCTSGSGSGLPFLVQRTVARQITLLECVGKGRYGEVWRGSWQGENVAVKIFSSRDEKSWFRETELYNTVMLRHENILGFIASDMTSRHSSTQLWLITHYHEMGSLYDYLQLTTLDTVSCLRIVLSIASGLAHLHIEIFGTQGKPAIAHRDLKSKNILVKKNGQCCIADLGLAVMHSQSTNQLDVGNNPRVGTKRYMAPEVLDETIQVDCFDSYKRVDIWAFGLVLWEVARRMVSNGIVEDYKPPFYDVVPNDPSFEDMRKVVCVDQQRPNIPNRWFSDPTLTSLAKLMKECWYQNPSARLTALRIKKTLTKIDNSLDKLKTDC
percentage of EdU-negative (hTERT-HMEC; [1]): 5.41 ± 0.37%
percentage of EdU-negative (hTERT-HMEC; protein concentration 0.225 µM): 5.41 ± 1.3%
percentage of EdU-negative (MCF7; [1]): 26.7 ± 0.75%
percentage of EdU-negative (MCF7; protein concentration 0.225 µM): 27.2 ± 0.41%

MKGILVAGITAVLVAAVESLSCVQCNSWEKSCVNSIASECPSHANTSCISSSASSSLETPVRLYQNMFCSAENCSEETHITAFTVHVSAEEHFHFVSQCCQGKECSNTSDALDPPLKNVSSNAECPACYESNGTSCHGKPWKCYEEEQCVFLVAELKNDIESKSLVLKGCSNVSNATCQFLSGENKTLGGVIFRKFECANVNSLTPTSAPTTSHNVGSKASLYLLALASLLLRGLLP [Q6UX82]
percentage of EdU-negative (hTERT-HMEC; [1]): 4.63 ± 0.18%
percentage of EdU-negative (hTERT-HMEC; protein concentration 0.225 µM): 5.88 ± 0.78%
percentage of EdU-negative (MCF7; [1]): 26.8 ± 1.8%
percentage of EdU-negative (MCF7; protein concentration 0.225 µM): 24 ± 2.7%

MLPCLVVLLAALLSLRLGSDAHGTELPSPPSVWFEAEFFHHILHWTPIPNQSESTCYEVALLRYGIESWNSISNCSQTLSYDLTAVTLDLYHSNGYRARVRAVDGSRHSNWTVTNTRFSVDEVTLTVGSVNLEIHNGFILGKIQLPRPKMAPANDTYESIFSHFREYEIAIRKVPGNFTFTHKKVKHENFSLLTSGEVGEFCVQVKPSVASRSNKGMWSKEECISLTRQYFTVTNVIIFFAFVLLLSGALAYCLALQLYVRRRKKLPSVLLFKKPSPFIFISQRPSPETQDTIHPLDEEAFLKVSPELKNLDLHGSTDSGFGSTKPSLQTEEPQFLLPDPHPQADRTLGNREPPVLGDSCSSGSSNSTDSGICLQEPSLSPSTGPTWEQQVGSNSRGQDDSGIDLVQNSEGRAGDTQGGSALGHHSPPEPEVPGEEDPAAVAFQGYLRQTRCAEEKATKTGCLEEESPLTDGLGPKFGRCLVDEAGLHPPALAKGYLKQDPLEMTLASSGAPTGQWNQPTEEWSLLALSSCSDLGISDWSFAHDLAPLGCVAAPGGLLGSFNSDLVTLPLISSLQSSE
percentage of EdU-negative (hTERT-HMEC; [2]): 5.02 ± 0.64%
percentage of EdU-negative (hTERT-HMEC; [3]): 5.96 ± 0.77%
percentage of EdU-negative (MCF7; [2]): 27.3 ± 1.9%
percentage of EdU-negative (MCF7; [3]): 25.3 ± 2.5%

MEWPARLCGLWALLLCAGGGGGGGGAAPTETQPPVTNLSVSVENLCTVIWTWNPPEGASSNCSLWYFSHFGDKQDKKIAPETRRSIEVPLNERICLQVGSQCSTNESEKPSILVEKCISPPEGDPESAVTELQCIWHNLSYMKCSWLPGRNTSPDTNYTLYYWHRSLEKIHQCENIFREGQYFGCSFDLTKVKDSSFEQHSVQIMVKDNAGKIKPSFNIVPLTSRVKPDPPHIKNLSFHNDDLYVQWENPQNFISRCLFYEVEVNNSQTETHNVFYVQEAKCENPEFERNVENTSCFMVPGVLPDTLNTVRIRVKTNKLCYEDDKLWSNWSQEMSIGKKRNSTLYITMLLIVPVIVAGAIIVLLLYLKRLKIIIFPPIPDPGKIFKEMFGDQNDDTLHWKKYDIYEKQTKEETDSVVLIENLKKASQ
percentage of EdU-negative (hTERT-HMEC; [4]): 5.5 ± 0.74%
percentage of EdU-negative (hTERT-HMEC; [5]): 5.19 ± 0.27%
percentage of EdU-negative (MCF7; [4]): 26.4 ± 0.86%
percentage of EdU-negative (MCF7; [5]): 26.6 ± 2%

MWVPVVFLTLSVTWIGAAPLILSRIVGGWECEKHSQPWQVLVASRGRAVCGGVLVHPQWVLTAAHCIRNKSVILLGRHSLFHPEDTGQVFQVSHSFPHPLYDMSLLKNRFLRPGDDSSHDLMLLRLSEPAELTDAVKVMDLPTQEPALGTTCYASGWGSIEPEEFLTPKKLQCVDLHVISNDVCAQVHPQKVTKFMLCAGRWTGGKSTCSGDSGGPLVCNGVLQGITSWGSEPCALPERPSLYTKVVHYRKWIKDTIVANP
percentage of EdU-negative (hTERT-HMEC; [1]): 4.97 ± 0.14%
percentage of EdU-negative (hTERT-HMEC; [6]): 4.99 ± 0.4%
percentage of EdU-negative (hTERT-HMEC; protein concentration 0.225 µM): 5.29 ± 0.6%
percentage of EdU-negative (hTERT-HMEC; [7]): 6.47 ± 0.73%
percentage of EdU-negative (MCF7; [1]): 26.3 ± 1.2%
percentage of EdU-negative (MCF7; [6]): 27.3 ± 0.96%
percentage of EdU-negative (MCF7; protein concentration 0.225 µM): 25 ± 2%
percentage of EdU-negative (MCF7; [7]): 26.3 ± 0.32%

MVRARHQPGGLCLLLLLLCQFMEDRSAQAGNCWLRQAKNGRCQVLYKTELSKEECCSTGRLSTSWTEEDVNDNTLFKWMIFNGGAPNCIPCKETCENVDCGPGKKCRMNKKNKPRCVCAPDCSNITWKGPVCGLDGKTYRNECALLKARCKEQPELEVQYQGRCKKTCRDVFCPGSSTCVVDQTNNAYCVTCNRICPEPASSEQYLCGNDGVTYSSACHLRKATCLLGRSIGLAYEGKCIKAKSCEDIQCTGGKKCLWDFKVGRGRCSLCDELCPDSKSDEPVCASDNATYASECAMKEAACSSGVLLEVKHSGSCNSISEDTEEEEEDEDQDYSFPISSILEW
percentage of EdU-negative (hTERT-HMEC; [8]): 5.35 ± 0.64%
percentage of EdU-negative (hTERT-HMEC; [9]): 6.11 ± 0.15%
percentage of EdU-negative (MCF7; [8]): 25.7 ± 1.4%
percentage of EdU-negative (MCF7; [9]): 26.2 ± 0.46%
